Substrate in the data set: O=C(O)CC(S)C(=O)O
The data set is described as follows: oxygen consumption, oxygen electrode, nonlinear regression. The format is biochemical, Advenella mimigardefordensis. Conditions: 100 mM Tris/HCl pH 7.4, 0.05-75 mM MS, 2 ug/ml enzyme, O2 co-substrate.

The term Km denotes the substrate concentration at which the rate is half of its maximum.

B1: MsdoDPN7 (MsdoAm; MIM_c37420) (Advenella mimigardefordensis DPN7) (protein)
chain: MTSKQDKQVAIRQFIDITKDIDSAQLDREKLAKIRDALVGIAAHKEWWGQDLYPAPTGDELQARYLIHAEPDNSYALYLNVMKPGKKIVPHNHTTWACIAAVEGVESNYLYERTDDGSVPGHATVVQTGMQAVEPGHGIALMPDDIHAVRIEDDNIRHLHMYGRALETLTERMAFDTSNNTCKIMDVGVKTQRSKG
notes: full gene in pET-19b (NdeI/XhoI), N-terminal His tag, expressed in E. coli BL21(DE3) pLysS, Ni-NTA purified; tag removal not mentioned
As for B1, the Km turned out to be 200 µM.
